US11278600B2, “Human alpha-galactosidase variants” (Codexis, Inc., priority 2014, dated 2022)
Substitutions are numbered along the chain they refer to.

B1: 292 (protein)
chain: LDNGLARTPTMGWLHWERFMCNLDCQEEPDSCISEKLFMEMAERMVSEGWKDAGYEYLCIDDCWMAPQRDSEGRLQADPQRFPHGIRQLANYVHSKGLKFGIYADVGNKTCAGFPGSFGYYDIDAQTFADWGVDLLKFDGCYCDSLENLADGYKHMSLALNRTGRSIVYSCEWPLYMWPFQKPNYTEIRQYCNHWRNFADIDDSWASVKSILDWTSFNHERIVDVAGPGGWNDPDMLVIGNFGLSWDQQVTQMALWAIMAAPLFMSNDLRHISPQAKALLQDKDVIAINQDPLGKQGYQLRKGDNFEVWERPLSGLAWAVAVINRQEIGGPRSYTIAVASLGKGVACNPACFITQLLPVKRKLGFYEWTSRLKSHVNPTGTVLLQLENTMQMSLKDLL
modifications: Synthetic Polypeptide sequence of Variant No. 292 of mature Human GLA
B2: 294 (protein)
chain: B1 chain with H219Q, R221T, K302Q, K373R
modifications: Synthetic Polypeptide sequence of Variant No. 294 of mature Human GLA
B3: 300 (protein)
chain: B1 chain with R44L, F100L, H219Q, R221T, K302Q, K343G, E367N, V376I
modifications: Synthetic Polypeptide sequence of Variant No. 300 of mature Human GLA
B4: 293 (protein)
chain: B1 chain with H219Q, R221K, F365L, K373R
modifications: Synthetic Polypeptide sequence of Variant No. 293 of mature Human GLA
B5: 295 (protein)
chain: B1 chain with H219Q, R221T, V322I, F365L
modifications: Synthetic Polypeptide sequence of Variant No. 295 of mature Human GLA
B6: 302 (protein)
chain: B1 chain with R44L, F100L, V208I, H219Q, D247N, K302Q, K343G, E367N, V376I
modifications: Synthetic Polypeptide sequence of Variant No. 302 of mature Human GLA
B7: 301 (protein)
chain: B1 chain with R44L, F100L, V208I, H219Q, D247N, K302Q, V322I, E367N, V376I
modifications: Synthetic Polypeptide sequence of Variant No. 301 of mature Human GLA
B8: 233 (protein)
chain: LDNGLARTPTMGWLHWERFMCNLDCQEEPDSCISEKLFMEMAELMVSEGWKDAGYEYLCIDDCWMAPQRDSEGRLQADPQRFPHGIRQLANYVHSKGLKLGIYADVGNKTCAGFPGSFGYYDIDAQTFADWGVDLLKFDGCYCDSLENLADGYKHMSLALNRTGRSIVYSCEWPLYMWPFQKPNYTEIRQYCNHWRNFADIDDSWASIKSILDWTSRNQERIVDVAGPGGWNDPDMLVIGNFGLSWDQQVTQMALWAIMAAPLFMSNDLRHISPQAKALLQDKDVIAINQDPLGKQGYQLRQGDNFEVWERPLSGDAWAVAMINRQEIGGPRSYTIAVASLGKGVACNPGCFITQLLPVKRKLGFYDWDSRLRSHINPTGTVLLQLENTMQMSLKDLL
modifications: Synthetic Polypeptide sequence of Variant No. 233 of mature Human GLA
B9: 234 (protein)
chain: B8 chain with Q302K, D316L
modifications: Synthetic Polypeptide sequence of Variant No. 234 of mature Human GLA
B10: 235 (protein)
chain: B8 chain with Q302K, A337P
modifications: Synthetic Polypeptide sequence of Variant No. 235 of mature Human GLA
B11: 236 (protein)
chain: B8 chain with D247N, Q302K, D316L, G350A
modifications: Synthetic Polypeptide sequence of Variant No. 236 of mature Human GLA

Columns and labels:
Assay type in all cases: biochemical
[1] = HTP-analysis of yeast culture supernatants, no challenge (MUGal hydrolysis); settings: yeast culture supernatant
How it was run: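 Activity read as 4-methylumbelliferyl α-D-galactopyranoside hydrolysis: fluorescence (355/448 nm) after sodium carbonate stop, following 30-180 min at 37° C with 2 mM MUGal stock at pH 4.6–4.8. Enzyme source is unchallenged culture supernatant of INVSc1 yeast expressing GLA variants, grown 66-84 h at 30° C.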

[2] = HTP-analysis of supernatants pretreated with acid (MUGal hydrolysis); settings: yeast culture supernatant; for Relative Activity of GLA Variants After Challenge at pH 4.2: activity of the variant/activity of Rd2BB (SEQ ID NO: 10); for Relative Activity of GLA Variants After Challenge at pH 4.0: activity of the variant/activity of Rd3BB (SEQ ID NO: 13)
How it was run: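 GLA variants were secreted from INVSc1 yeast grown 66-84 h at 30° C. in SD-Ura with 2% glucose; supernatants were mixed with McIlvaine buffer pH 3.3-4.3 and held at 37° C. for 1-3 h. Residual activity on MUGal at pH 4.8 was then measured by fluorescence.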

[3] = HTP-analysis of supernatants pretreated with bovine serum (MUGal hydrolysis); settings: yeast culture supernatant
How it was run: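 Yeast INVSc1 culture supernatants containing secreted GLA variants were mixed with bovine serum (20:80) and held 1 h at 37° C. Serum-treated samples then reacted with MUGal (4 mM stock) in citrate/McIlvaine buffer (pH 4.3/4.8) for 180 min at 37° C., were quenched with sodium carbonate, and read by fluorescence (Ex 355, Em 448 nm).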

[4] = HTP-analysis of supernatants pretreated with base (MUGal hydrolysis); settings: yeast culture supernatant; for Relative Activity of GLA Variants After Challenge at pH 7.6: activity of the variant/activity of Rd2BB (SEQ ID NO: 10); for Relative Activity of GLA Variants After Challenge at pH 8.2: activity of the variant/activity of Rd3BB (SEQ ID NO: 13)
How it was run: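 GLA variants secreted from yeast INVSc1; culture supernatants pre-incubated with McIlvaine buffer pH 7.0–8.2 or 200 mM bicarbonate pH 9.1–9.7 at 37° C. for 1–18 h. Residual activity: MUGal (4 mM stock) hydrolysis at pH 4.3–4.8, 37° C., 30–180 min, carbonate quench; fluorescence Ex 355/Em 448 nm.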

[5] = activity of the variant/activity of Rd2BB (SEQ ID NO: 10)
[6] = activity of the variant/activity of Rd3BB (SEQ ID NO: 13)

Row | Molecule | Relative Activity of GLA Variants After No Challenge (NC) [1, 5] | Relative Activity of GLA Variants After Challenge at pH 4.2 [2] | Relative Activity of GLA Variants After Challenge with Serum [3, 5] | Relative Activity of GLA Variants After Challenge at pH 7.6 [4] | Relative Activity of GLA Variants After No Challenge (NC) [1, 6] | Relative Activity of GLA Variants After Challenge at pH 4.0 [2] | Relative Activity of GLA Variants After Challenge with Serum [3, 6] | Relative Activity of GLA Variants After Challenge at pH 8.2 [4]
1 | B1 | +++ (+++ = >2.5 relative activity over Rd2BB (SEQ ID NO: 10)) | ++ (++ = 1.5 to 2.5 relative activity over Rd2BB (SEQ ID NO: 10)) | ++ (++ = 1.5 to 2.5 relative activity over Rd2BB (SEQ ID NO: 10)) | +++ (+++ = >2.5 relative activity over Rd2BB (SEQ ID NO: 10)) |  |  |  | 
2 | B2 | ++ (++ = 1.5 to 2.5 relative activity over Rd2BB (SEQ ID NO: 10)) | ++ (++ = 1.5 to 2.5 relative activity over Rd2BB (SEQ ID NO: 10)) | + (+ = 0.5 to 1.5 relative activity over Rd2BB (SEQ ID NO: 10)) | +++ (+++ = >2.5 relative activity over Rd2BB (SEQ ID NO: 10)) |  |  |  | 
3 | B3 |  |  |  |  | + (+ = 0.5 to 1.5 relative activity over Rd3BB (SEQ ID NO: 13)) | ++ (++ = >1.5 to 2.5 relative activity over Rd3BB (SEQ ID NO: 13)) | ++ (++ = >1.5 to 2.5 relative activity over Rd3BB (SEQ ID NO: 13)) | ++ (++ = >1.5 to 2.5 relative activity over Rd3BB (SEQ ID NO: 13))
4 | B4 | ++ (++ = 1.5 to 2.5 relative activity over Rd2BB (SEQ ID NO: 10)) | + (+ = 0.5 to 1.5 relative activity over Rd2BB (SEQ ID NO: 10)) | + (+ = 0.5 to 1.5 relative activity over Rd2BB (SEQ ID NO: 10)) | ++ (++ = 1.5 to 2.5 relative activity over Rd2BB (SEQ ID NO: 10)) |  |  |  | 
5 | B5 | +++ (+++ = >2.5 relative activity over Rd2BB (SEQ ID NO: 10)) | +++ (+++ = >2.5 relative activity over Rd2BB (SEQ ID NO: 10)) | +++ (+++ = >2.5 relative activity over Rd2BB (SEQ ID NO: 10)) | +++ (+++ = >2.5 relative activity over Rd2BB (SEQ ID NO: 10)) |  |  |  | 
6 | B6 |  |  |  |  | + (+ = 0.5 to 1.5 relative activity over Rd3BB (SEQ ID NO: 13)) | + (+ = 0.5 to 1.5 relative activity over Rd3BB (SEQ ID NO: 13)) | + (+ = 0.5 to 1.5 relative activity over Rd3BB (SEQ ID NO: 13)) | + (+ = 0.5 to 1.5 relative activity over Rd3BB (SEQ ID NO: 13))
7 | B7 |  |  |  |  | + (+ = 0.5 to 1.5 relative activity over Rd3BB (SEQ ID NO: 13)) | + (+ = 0.5 to 1.5 relative activity over Rd3BB (SEQ ID NO: 13)) | − (− = <0.5 relative activity to Rd3BB (SEQ ID NO: 13)) | + (+ = 0.5 to 1.5 relative activity over Rd3BB (SEQ ID NO: 13))
8 | B8 | +++ (+++ = >2.5 relative activity over Rd2BB (SEQ ID NO: 10)) | +++ (+++ = >2.5 relative activity over Rd2BB (SEQ ID NO: 10)) | +++ (+++ = >2.5 relative activity over Rd2BB (SEQ ID NO: 10)) | +++ (+++ = >2.5 relative activity over Rd2BB (SEQ ID NO: 10)) |  |  |  | 
9 | B9 | +++ (+++ = >2.5 relative activity over Rd2BB (SEQ ID NO: 10)) | +++ (+++ = >2.5 relative activity over Rd2BB (SEQ ID NO: 10)) | +++ (+++ = >2.5 relative activity over Rd2BB (SEQ ID NO: 10)) | +++ (+++ = >2.5 relative activity over Rd2BB (SEQ ID NO: 10)) |  |  |  | 
10 | B10 | +++ (+++ = >2.5 relative activity over Rd2BB (SEQ ID NO: 10)) | +++ (+++ = >2.5 relative activity over Rd2BB (SEQ ID NO: 10)) | +++ (+++ = >2.5 relative activity over Rd2BB (SEQ ID NO: 10)) | +++ (+++ = >2.5 relative activity over Rd2BB (SEQ ID NO: 10)) |  |  |  | 
11 | B11 | +++ (+++ = >2.5 relative activity over Rd2BB (SEQ ID NO: 10)) | ++ (++ = 1.5 to 2.5 relative activity over Rd2BB (SEQ ID NO: 10)) | ++ (++ = 1.5 to 2.5 relative activity over Rd2BB (SEQ ID NO: 10)) | +++ (+++ = >2.5 relative activity over Rd2BB (SEQ ID NO: 10)) |  |  |  | 
